Laboratory results as given in PMC9606269, “Biased signaling due to oligomerization of the G protein-coupled platelet-activating factor receptor” (Nature Communications, 2022).

Legend:
[1] = molecular target: Halo-PAFR Cys mutant 1.33; experiment: cysteine cross-linking with CuP, SDS-PAGE blot quantification of cell surface Halo-PAFR; conditions: parent: est. 5, read off a plot
[2] = molecular target: Halo-PAFR Cys mutant 1.35; experiment: as above; conditions: parent: est. 5, read off a plot
[3] = molecular target: Halo-PAFR Cys mutant 1.38; experiment: as above; conditions: parent: est. 5, read off a plot
[4] = molecular target: Halo-PAFR Cys mutant 1.39; experiment: as above; conditions: parent: est. 5, read off a plot
[5] = molecular target: Halo-PAFR Cys mutant 1.41; experiment: as above; conditions: parent: est. 5, read off a plot
[6] = molecular target: Halo-PAFR Cys mutant 2.59; experiment: as above; conditions: parent: est. 5, read off a plot
[7] = molecular target: Halo-PAFR Cys mutant 2.63; experiment: as above; conditions: parent: est. 5, read off a plot
[8] = molecular target: Halo-PAFR Cys mutant 3.23; experiment: as above; conditions: parent: est. 5, read off a plot
[9] = molecular target: Halo-PAFR Cys mutant 3.27; experiment: as above; conditions: parent: est. 5, read off a plot
[10] = molecular target: Halo-PAFR Cys mutant 4.47; experiment: as above; conditions: parent: est. 5, read off a plot
[11] = molecular target: Halo-PAFR Cys mutant 4.48; experiment: as above; conditions: parent: est. 5, read off a plot
[12] = molecular target: Halo-PAFR Cys mutant 4.51; experiment: as above; conditions: parent: est. 5, read off a plot
[13] = molecular target: Halo-PAFR Cys mutant 4.53; experiment: as above; conditions: parent: est. 5, read off a plot
[14] = molecular target: Halo-PAFR Cys mutant 4.54; experiment: as above; conditions: parent: est. 5, read off a plot
[15] = molecular target: Halo-PAFR Cys mutant 4.56; experiment: as above; conditions: parent: est. 5, read off a plot
[16] = molecular target: Halo-PAFR Cys mutant 4.57; experiment: as above; conditions: parent: est. 5, read off a plot
[17] = molecular target: Halo-PAFR Cys mutant 4.58; experiment: as above; conditions: parent: est. 5, read off a plot
[18] = molecular target: Halo-PAFR Cys mutant 4.60; experiment: as above; conditions: parent: est. 5, read off a plot
[19] = molecular target: Halo-PAFR Cys mutant 4.61; experiment: as above; conditions: parent: est. 5, read off a plot
[20] = molecular target: Halo-PAFR Cys mutant 4.64; experiment: as above; conditions: parent: est. 5, read off a plot
[21] = molecular target: Halo-PAFR Cys mutant 6.49; experiment: as above; conditions: parent: est. 5, read off a plot
[22] = molecular target: Halo-PAFR Cys mutant 6.51; experiment: as above; conditions: parent: est. 5, read off a plot
[23] = molecular target: Halo-PAFR Cys mutant 6.53; experiment: as above; conditions: parent: est. 5, read off a plot
[24] = molecular target: Halo-PAFR Cys mutant 6.54; experiment: as above; conditions: parent: est. 5, read off a plot
[25] = molecular target: Halo-PAFR Cys mutant 6.56; experiment: as above; conditions: parent: est. 5, read off a plot
[26] = molecular target: Halo-PAFR Cys mutant 7.33; experiment: as above; conditions: parent: est. 5, read off a plot
[27] = molecular target: Halo-PAFR Cys mutant 7.35; experiment: as above; conditions: parent: est. 5, read off a plot
[28] = molecular target: Halo-PAFR Cys mutant 7.37; experiment: as above; conditions: parent: est. 5, read off a plot
[29] = molecular target: Halo-PAFR Cys mutant 7.38; experiment: as above; conditions: parent: est. 5, read off a plot
[30] = molecular target: Halo-PAFR E178K (natural genetic variant) (human, UniProt P25105 1-342, E178K, Halo-tag covalently labelled with HaloTag Alexa Fluor 488); experiment: cell-based or functional assay
Halo-PAFR E178K (natural genetic variant), sequence (P25105 whole entry E178K): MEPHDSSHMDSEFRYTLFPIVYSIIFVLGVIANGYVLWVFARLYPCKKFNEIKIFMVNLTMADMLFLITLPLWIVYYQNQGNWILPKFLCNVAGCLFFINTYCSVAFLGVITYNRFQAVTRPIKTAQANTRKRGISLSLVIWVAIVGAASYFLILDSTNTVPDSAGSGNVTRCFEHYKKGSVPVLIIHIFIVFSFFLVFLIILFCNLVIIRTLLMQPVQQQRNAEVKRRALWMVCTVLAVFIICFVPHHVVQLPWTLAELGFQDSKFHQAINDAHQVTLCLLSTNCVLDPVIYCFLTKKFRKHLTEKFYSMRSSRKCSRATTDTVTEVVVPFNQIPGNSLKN

[31] = molecular target: Halo-PAFR Y151C^4.59-I154C^4.62 (human, UniProt P25105 1-342, Y151C^4.59 | I154C^4.62, Halo-tag covalently labelled with HaloTag Alexa Fluor 660 (blots) or HaloTag Alexa Fluor 488 (imaging)); experiment: cell-based or functional assay
Halo-PAFR Y151C^4.59-I154C^4.62, sequence (P25105 whole entry Y151C/I154C): as the sequence (P25105 whole entry E178K) above, with Y151C, I154C, K178E counted along it

## Halo-tagged wild-type human platelet-activating factor receptor (from UniProt P25105) 1.33
[1]
  other: change of dimer cross-linking: 14%

## Halo-tagged wild-type human platelet-activating factor receptor (from UniProt P25105) 1.35
[2]
  other: change of dimer cross-linking: 18%

## Halo-tagged wild-type human platelet-activating factor receptor (from UniProt P25105) 1.38
[3]
  other: change of dimer cross-linking: 16%

## Halo-tagged wild-type human platelet-activating factor receptor (from UniProt P25105) 1.39
[4]
  other: change of dimer cross-linking: 13%

## Halo-tagged wild-type human platelet-activating factor receptor (from UniProt P25105) 1.41
[5]
  other: change of dimer cross-linking: 20%

## Halo-tagged wild-type human platelet-activating factor receptor (from UniProt P25105) 2.59
[6]
  other: change of dimer cross-linking: 21%

## Halo-tagged wild-type human platelet-activating factor receptor (from UniProt P25105) 2.63
[7]
  other: change of dimer cross-linking: 14%

## Halo-tagged wild-type human platelet-activating factor receptor (from UniProt P25105) 3.23
[8]
  other: change of dimer cross-linking: 8%

## Halo-tagged wild-type human platelet-activating factor receptor (from UniProt P25105) 3.27
[9]
  other: change of dimer cross-linking: 9%

## Halo-tagged wild-type human platelet-activating factor receptor (from UniProt P25105) 4.47
[10]
  other: change of dimer cross-linking: 13%

## Halo-tagged wild-type human platelet-activating factor receptor (from UniProt P25105) 4.48
[11]
  other: change of dimer cross-linking: 14%

## Halo-tagged wild-type human platelet-activating factor receptor (from UniProt P25105) 4.51
[12]
  other: change of dimer cross-linking: 19%

## Halo-tagged wild-type human platelet-activating factor receptor (from UniProt P25105) 4.53
[13]
  other: change of dimer cross-linking: 20%

## Halo-tagged wild-type human platelet-activating factor receptor (from UniProt P25105) 4.54
[14]
  other: change of dimer cross-linking: 20%

## Halo-tagged wild-type human platelet-activating factor receptor (from UniProt P25105) 4.56
[15]
  other: change of dimer cross-linking: 22%

## Halo-tagged wild-type human platelet-activating factor receptor (from UniProt P25105) 4.57
[16]
  other: change of dimer cross-linking: 15%

## Halo-tagged wild-type human platelet-activating factor receptor (from UniProt P25105) 4.58
[17]
  other: change of dimer cross-linking: 22%

## Halo-tagged wild-type human platelet-activating factor receptor (from UniProt P25105) 4.60
[18]
  other: change of dimer cross-linking: 20%

## Halo-tagged wild-type human platelet-activating factor receptor (from UniProt P25105) 4.61
[19]
  other: change of dimer cross-linking: 18%

## Halo-tagged wild-type human platelet-activating factor receptor (from UniProt P25105) 4.64
[20]
  other: change of dimer cross-linking: 11%

## Halo-tagged wild-type human platelet-activating factor receptor (from UniProt P25105) 6.49
[21]
  other: change of dimer cross-linking: 15%

## Halo-tagged wild-type human platelet-activating factor receptor (from UniProt P25105) 6.51
[22]
  other: change of dimer cross-linking: 6%

## Halo-tagged wild-type human platelet-activating factor receptor (from UniProt P25105) 6.53
[23]
  other: change of dimer cross-linking: 10%

## Halo-tagged wild-type human platelet-activating factor receptor (from UniProt P25105) 6.54
[24]
  other: change of dimer cross-linking: 8%

## Halo-tagged wild-type human platelet-activating factor receptor (from UniProt P25105) 6.56
[25]
  other: change of dimer cross-linking: 9%

## Halo-tagged wild-type human platelet-activating factor receptor (from UniProt P25105) 7.33
[26]
  other: change of dimer cross-linking: 15%

## Halo-tagged wild-type human platelet-activating factor receptor (from UniProt P25105) 7.35
[27]
  other: change of dimer cross-linking: 16%

## Halo-tagged wild-type human platelet-activating factor receptor (from UniProt P25105) 7.37
[28]
  other: change of dimer cross-linking: 19%

## Halo-tagged wild-type human platelet-activating factor receptor (from UniProt P25105) 7.38
[29]
  other: change of dimer cross-linking: 15%

B1: Human β-arrestin1 tagged with Rluc (natural protein, UniProt P49407 1-418, looked up)
chain: MGDKGTRVFKKASPNGKLTVYLGKRDFVDHIDLVDPVDGVVLVDPEYLKERRVYVTLTCAFRYGREDLDVLGLTFRKDLFVANVQSFPPAPEDKKPLTRLQERLIKKLGEHAYPFTFEIPPNLPCSVTLQPGPEDTGKACGVDYEVKAFCAENLEEKIHKRNSVRLVIRKVQYAPERPGPQPTAETTRQFLMSDKPLHLEASLDKEIYYHGEPISVNVHVTNNTNKTVKKIKISVRQYADICLFNTAQYKCPVAMEEADDTVAPSSTFCKVYTLTPFLANNREKRGLALDGKLKHEDTNLASSTLLREGANREILGIIVSYKVKVKLVVSRGGLLGDLASSDVAVELPFTLMHPKPKEEPPHREVPENETPVDTNLIELDTNDDDIVFEDFARQRLKGMKDDKEEEEDGTGSPQLNNR
[30]
  maximal efficacy of βarr1 recruitment, normalized to WT: ~83 % of WT
[31]
  maximal efficacy of βarr1 recruitment, normalized to WT: ~60 % of WT
